Laboratory results as given in article PMC9171630 (Proceedings of the National Academy of Sciences of the …, 2022).

B2: KaiA (natural protein)
chain: MLSQIAICIWVESTAILQDCQRALSADRYQLQVCESGEMLLEYAQTHRDQIDCLILVAANPSFRAVVQQLCFEGVVVPAIVVGDRDSEDPDEPAKEQLYHSAELHLGIHQLEQLPYQVDAALAEFLRLAPVETMADHIMLMGANHDPELSSQQRDLAQRLQERLGYLGVYYKRDPDRFLRNLPAYESQKLHQAMQTSYREIVLSYFSPNSNLNQSIDNFVNMAFFADVPVTKVVEIHMELMDEFAKKLRVEGRSEDILLDYRLTLIDVIAHLCEMYRRSIPRET

Key:
KaiA = molecular target: B2; assay: SEC-MALS
KaiC^E357Q-AA = molecular target: T1, KaiC^E357Q-AA (Synechococcus elongatus PCC 7942, UniProt Q79PF4 1-519, E357Q | S431A | T432A); assay: native gel or EMSA
T1 sequence: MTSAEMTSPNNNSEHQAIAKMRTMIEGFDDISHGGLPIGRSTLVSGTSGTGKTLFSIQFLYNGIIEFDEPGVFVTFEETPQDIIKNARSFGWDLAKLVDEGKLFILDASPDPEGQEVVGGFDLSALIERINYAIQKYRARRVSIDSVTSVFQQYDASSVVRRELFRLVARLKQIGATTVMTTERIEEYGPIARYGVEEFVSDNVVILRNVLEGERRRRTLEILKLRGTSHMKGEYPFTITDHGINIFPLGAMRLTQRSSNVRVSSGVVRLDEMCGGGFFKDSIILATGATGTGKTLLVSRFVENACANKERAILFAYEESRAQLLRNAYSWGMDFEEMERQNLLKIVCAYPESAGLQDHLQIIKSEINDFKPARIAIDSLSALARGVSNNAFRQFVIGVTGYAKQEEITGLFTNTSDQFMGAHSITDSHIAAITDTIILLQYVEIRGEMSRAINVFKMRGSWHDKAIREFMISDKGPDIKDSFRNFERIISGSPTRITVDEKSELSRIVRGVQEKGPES

[1] = molecular target: T2, KaiB–KaiC^Δ505-ST complex (preformed) ( | Synechococcus elongatus …, UniProt Q79PF5;Q79PF4); assay: SEC-MALS
T2 sequence 1: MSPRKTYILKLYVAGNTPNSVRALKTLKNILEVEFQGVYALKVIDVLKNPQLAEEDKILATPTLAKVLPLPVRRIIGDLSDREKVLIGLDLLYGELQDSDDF
T2 sequence 2: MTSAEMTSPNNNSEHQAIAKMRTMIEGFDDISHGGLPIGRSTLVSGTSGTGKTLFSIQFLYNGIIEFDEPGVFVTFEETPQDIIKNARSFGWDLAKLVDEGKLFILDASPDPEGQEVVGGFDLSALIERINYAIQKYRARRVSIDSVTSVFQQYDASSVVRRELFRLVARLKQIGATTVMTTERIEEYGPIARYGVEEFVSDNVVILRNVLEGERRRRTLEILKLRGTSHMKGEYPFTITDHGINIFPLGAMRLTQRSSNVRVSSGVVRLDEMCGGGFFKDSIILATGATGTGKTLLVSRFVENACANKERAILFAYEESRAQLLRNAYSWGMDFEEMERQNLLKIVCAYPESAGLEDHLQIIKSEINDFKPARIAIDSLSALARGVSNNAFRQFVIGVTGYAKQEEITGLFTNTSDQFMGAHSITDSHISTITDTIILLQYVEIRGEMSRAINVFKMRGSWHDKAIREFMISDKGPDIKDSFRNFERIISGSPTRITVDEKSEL

[2] = molecular target: T3, KaiB–KaiC-ST complex (preformed for 48 h) ( | Synechococcus elongatus …, UniProt Q79PF5;Q79PF4); assay: SEC-MALS
T3 sequence 1: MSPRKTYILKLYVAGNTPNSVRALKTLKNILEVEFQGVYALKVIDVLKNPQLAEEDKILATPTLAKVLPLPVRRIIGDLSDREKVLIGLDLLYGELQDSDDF
T3 sequence 2: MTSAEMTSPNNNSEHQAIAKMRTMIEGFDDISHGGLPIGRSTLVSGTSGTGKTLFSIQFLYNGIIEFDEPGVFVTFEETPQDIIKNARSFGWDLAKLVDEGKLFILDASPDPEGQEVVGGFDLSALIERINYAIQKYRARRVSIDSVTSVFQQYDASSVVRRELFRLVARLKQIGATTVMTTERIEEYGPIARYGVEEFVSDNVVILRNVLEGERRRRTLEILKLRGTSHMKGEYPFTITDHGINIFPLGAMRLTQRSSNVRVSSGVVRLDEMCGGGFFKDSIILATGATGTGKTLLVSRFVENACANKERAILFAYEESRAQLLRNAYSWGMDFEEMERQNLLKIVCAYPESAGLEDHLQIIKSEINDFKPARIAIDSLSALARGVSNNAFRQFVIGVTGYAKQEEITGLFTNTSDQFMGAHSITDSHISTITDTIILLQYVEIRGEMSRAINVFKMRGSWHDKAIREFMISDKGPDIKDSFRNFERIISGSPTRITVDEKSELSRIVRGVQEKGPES

crystal structure = molecular target: the molecule itself; assay: crystal structure

B1: KaiB (natural protein)
chain: MSPRKTYILKLYVAGNTPNSVRALKTLKNILEVEFQGVYALKVIDVLKNPQLAEEDKILATPTLAKVLPLPVRRIIGDLSDREKVLIGLDLLYGELQDSDDF
B1: binds (KaiA); binds (KaiC^E357Q-AA).

B2: binds [1]; binds [2].

B3: S431A/T432A KaiC mutant (KaiC-AA) (enzyme)
chain: MTSAEMTSPNNNSEHQAIAKMRTMIEGFDDISHGGLPIGRSTLVSGTSGTGKTLFSIQFLYNGIIEFDEPGVFVTFEETPQDIIKNARSFGWDLAKLVDEGKLFILDASPDPEGQEVVGGFDLSALIERINYAIQKYRARRVSIDSVTSVFQQYDASSVVRRELFRLVARLKQIGATTVMTTERIEEYGPIARYGVEEFVSDNVVILRNVLEGERRRRTLEILKLRGTSHMKGEYPFTITDHGINIFPLGAMRLTQRSSNVRVSSGVVRLDEMCGGGFFKDSIILATGATGTGKTLLVSRFVENACANKERAILFAYEESRAQLLRNAYSWGMDFEEMERQNLLKIVCAYPESAGLEDHLQIIKSEINDFKPARIAIDSLSALARGVSNNAFRQFVIGVTGYAKQEEITGLFTNTSDQFMGAHSITDSHIAAITDTIILLQYVEIRGEMSRAINVFKMRGSWHDKAIREFMISDKGPDIKDSFRNFERIISGSPTRITVDEKSELSRIVRGVQEKGPES
With B3 the “stoichiometry N” value (crystal structure) was 6.
